Experimental data as given in paper PMC4637903.

What was measured:
Conditions in all cases: parent: 1.0
[1] = target: wild-type FAK (co-immunoprecipitations from transfected cells); assay: co-immunoprecipitation (IP: Myc (β4)) and Western blot, densitometry
[2] = target: wild-type β4 integrin (co-immunoprecipitations from transfected cells) (UniProt P16144); assay: co-immunoprecipitation (IP: β4) and Western blot, densitometry
[3] = target: wild-type β4 integrin (co-immunoprecipitations from transfected cells) (UniProt P16144); assay: co-immunoprecipitation (IP: Myc (β4)) and Western blot, densitometry

Chain of UniProt P16144 (P16144 28-1822): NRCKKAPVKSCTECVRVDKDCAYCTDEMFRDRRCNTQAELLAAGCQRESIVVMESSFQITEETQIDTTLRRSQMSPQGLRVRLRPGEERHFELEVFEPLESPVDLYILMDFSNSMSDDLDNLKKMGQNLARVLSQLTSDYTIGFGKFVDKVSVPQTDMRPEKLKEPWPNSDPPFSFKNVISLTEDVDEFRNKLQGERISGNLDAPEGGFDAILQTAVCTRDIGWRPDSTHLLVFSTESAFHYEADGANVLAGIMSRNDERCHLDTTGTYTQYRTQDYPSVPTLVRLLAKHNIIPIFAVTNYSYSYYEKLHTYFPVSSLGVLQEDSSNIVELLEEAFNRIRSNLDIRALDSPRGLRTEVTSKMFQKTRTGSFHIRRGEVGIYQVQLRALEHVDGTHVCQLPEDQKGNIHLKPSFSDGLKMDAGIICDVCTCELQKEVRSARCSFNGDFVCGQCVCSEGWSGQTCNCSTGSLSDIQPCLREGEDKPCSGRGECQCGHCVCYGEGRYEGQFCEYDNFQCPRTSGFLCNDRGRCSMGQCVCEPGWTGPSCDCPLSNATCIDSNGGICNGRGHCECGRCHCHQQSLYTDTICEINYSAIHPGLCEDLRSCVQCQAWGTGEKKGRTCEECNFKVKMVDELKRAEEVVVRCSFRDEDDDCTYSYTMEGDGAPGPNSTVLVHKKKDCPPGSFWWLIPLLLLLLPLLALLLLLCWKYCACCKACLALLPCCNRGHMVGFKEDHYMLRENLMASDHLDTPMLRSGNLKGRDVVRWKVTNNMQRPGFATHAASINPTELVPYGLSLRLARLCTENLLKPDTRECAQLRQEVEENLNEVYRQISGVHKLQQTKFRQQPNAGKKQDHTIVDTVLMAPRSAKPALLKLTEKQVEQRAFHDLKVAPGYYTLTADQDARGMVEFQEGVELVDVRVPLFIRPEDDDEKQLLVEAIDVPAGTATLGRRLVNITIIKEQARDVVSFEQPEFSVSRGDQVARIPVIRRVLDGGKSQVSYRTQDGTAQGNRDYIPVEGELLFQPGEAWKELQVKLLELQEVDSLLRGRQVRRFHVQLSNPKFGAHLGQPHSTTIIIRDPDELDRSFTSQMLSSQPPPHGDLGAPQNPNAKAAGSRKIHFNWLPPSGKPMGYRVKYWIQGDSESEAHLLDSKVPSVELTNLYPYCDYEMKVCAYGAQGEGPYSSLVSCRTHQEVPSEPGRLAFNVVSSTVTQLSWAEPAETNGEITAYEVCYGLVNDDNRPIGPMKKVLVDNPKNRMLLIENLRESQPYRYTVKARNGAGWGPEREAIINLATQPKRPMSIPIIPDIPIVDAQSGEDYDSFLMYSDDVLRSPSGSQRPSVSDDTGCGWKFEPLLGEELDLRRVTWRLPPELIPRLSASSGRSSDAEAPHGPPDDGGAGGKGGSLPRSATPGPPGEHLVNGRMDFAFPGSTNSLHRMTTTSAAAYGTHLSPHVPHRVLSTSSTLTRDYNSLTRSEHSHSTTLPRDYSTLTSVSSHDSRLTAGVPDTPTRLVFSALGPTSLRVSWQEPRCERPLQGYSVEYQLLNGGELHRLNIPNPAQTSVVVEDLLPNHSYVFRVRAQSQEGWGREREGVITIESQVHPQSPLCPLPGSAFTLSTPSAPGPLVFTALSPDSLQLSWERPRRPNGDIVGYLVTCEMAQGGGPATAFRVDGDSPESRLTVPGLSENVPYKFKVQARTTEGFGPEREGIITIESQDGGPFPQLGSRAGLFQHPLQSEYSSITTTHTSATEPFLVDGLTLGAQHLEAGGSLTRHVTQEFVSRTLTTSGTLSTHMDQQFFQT

| Substance | ratio to parent [1] | ratio to parent [3] | also measured |
| --- | --- | --- | --- |
| wild-type β4 integrin (co-immunoprecipitations from transfected cells) (from UniProt P16144) Y1526F | 0.5 | – | – |
| wild-type FAK (co-immunoprecipitations from transfected cells) E380A; K381A; Q382A | – | – | ratio to parent [2]: 0.2 |
| wild-type β4 integrin (co-immunoprecipitations from transfected cells) (from UniProt P16144) Y1422F | 1.1 | – | – |
| wild-type FAK (co-immunoprecipitations from transfected cells) R385A; S386A | – | – | ratio to parent [2]: 0.7 |
| wild-type β4 integrin (co-immunoprecipitations from transfected cells) (from UniProt P16144) Y1494F | 1.1 | – | – |
| wild-type FAK (co-immunoprecipitations from transfected cells) E380A | – | 0.3 | – |
| wild-type FAK (co-immunoprecipitations from transfected cells) R385A | – | 0.5 | – |
| wild-type β4 integrin (co-immunoprecipitations from transfected cells) (from UniProt P16144) Y1440F | 1.4 | – | – |
| wild-type FAK (co-immunoprecipitations from transfected cells) S386A | – | 1.2 | – |
| wild-type FAK (co-immunoprecipitations from transfected cells) G383A | – | 1.2 | – |
| wild-type FAK (co-immunoprecipitations from transfected cells) N379A | – | 1.4 | – |
| wild-type β4 integrin (co-immunoprecipitations from transfected cells) (from UniProt P16144) Y1642F | 0.3 | – | – |
| wild-type FAK (co-immunoprecipitations from transfected cells) Q382A | – | 0.3 | – |
| wild-type FAK (co-immunoprecipitations from transfected cells) K381A | – | 0.3 | – |
